According to patent publication US20250152729A1 (CANCER RESEARCH TECHNOLOGY, published 2025):

B1: 5Hg4-5Lg2 human Alya IgG1 (antibody, V domains shown)
VH: QVQLVQSGSELKKPGASVKVSCKASGYTFTDYWMHWVRQAPGQGLEWMGAIDTSDSYTSYNQKFKGRFVFSLDTSVSTAYLQICSLKAEDTAVYYCARDYGNFYYYAMDYWGQGTLVTVSS
VL: QAVVTQEPSLTVSPGGTVTLTCRSSTGAVTTSNYANWFQQKPGQAPRTLIYGTNNRAPWTPARFSGSLLGGKAALTLLGAQPEDEAEYYCALWYSNHWVFGGGTKLTVL
notes: Humanised 5E3; human IgG1 Alya constant (239iCys, S442C, EU), lambda light chain; purified, unconjugated
B2: 5Hg5-5Lg2 human Alya IgG1 (antibody, V domains shown)
VH: EVQLVQSGAEVKKPGESLRISCKGSGYSFTDYWMHWVRQMPGKGLEWMGAIDTSDSYTSYNQKFKGQVTISADKSISTAYLQWSSLKASDTAMYYCARDYGNFYYYAMDYWGQGTLVTVSS
VL: B1 VL
notes: Humanised 5E3; human IgG1 Alya constant (239iCys, S442C, EU), lambda light chain; purified, unconjugated; also called 5HE5/5Lg2
B3: 5Hg2-5Lg6 human Alya IgG1 (antibody, V domains shown)
VH: QVQLVQSGAEVKKPGASVKVSCKASGYTFTDYWMHWVRQAPGQRLEWMGAIDTSDSYTSYNQKFKGRVTITRDTSASTAYMELSSLRSEDTAVYYCARDYGNFYYYAMDYWGQGTLVTVSS
VL: SYELTQPSSVSVSPGQTARITCRSSTGAVTTSNYANWFQQKPGQAPVLVIYGTNNRAPGIPERFSGSSSGTTVTLTISGAQVEDEADYYCALWYSNHWVFGGGTKLTVL
notes: as for B1

Target: T1, cynomolgus SEMA4A expressed on expi293 cells (UniProt ID G7NV79) (cynomolgus, UniProt Q9H3S1 33-761 (human entry))
T1 construct: Transient transfection in expi293 cells; also called cyno SEMA4A
T1 chain: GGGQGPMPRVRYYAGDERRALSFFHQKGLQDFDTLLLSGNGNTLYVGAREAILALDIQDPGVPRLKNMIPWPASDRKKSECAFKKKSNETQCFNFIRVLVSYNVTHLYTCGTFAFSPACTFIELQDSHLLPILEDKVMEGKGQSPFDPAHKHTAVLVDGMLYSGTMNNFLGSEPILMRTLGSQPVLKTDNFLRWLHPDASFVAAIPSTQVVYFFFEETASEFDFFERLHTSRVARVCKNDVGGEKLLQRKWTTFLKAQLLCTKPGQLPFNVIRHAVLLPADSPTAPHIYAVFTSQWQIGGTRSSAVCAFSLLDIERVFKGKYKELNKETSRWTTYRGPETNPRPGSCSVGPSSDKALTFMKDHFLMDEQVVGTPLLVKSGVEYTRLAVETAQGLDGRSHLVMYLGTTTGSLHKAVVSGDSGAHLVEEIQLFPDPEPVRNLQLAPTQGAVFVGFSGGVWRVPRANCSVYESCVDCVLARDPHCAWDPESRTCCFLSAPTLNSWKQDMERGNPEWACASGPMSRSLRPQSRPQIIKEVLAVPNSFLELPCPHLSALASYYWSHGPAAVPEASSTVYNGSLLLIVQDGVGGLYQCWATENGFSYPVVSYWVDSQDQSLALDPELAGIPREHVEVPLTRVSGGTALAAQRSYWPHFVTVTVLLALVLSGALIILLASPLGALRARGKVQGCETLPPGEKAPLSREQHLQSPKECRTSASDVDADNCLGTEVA
Test: Mirrorball direct binding, dilution series on expi293 cells transiently transfected with cyno SEMA4A, anti-human Alexa Fluor 647
Description: Hits from the primary screening were re-formatted into the human Alya IgG1 vector and re-expressed and purified as described in section 4.1. In addition, a single clone was identified that contained an Asparagine deamidation motif (Asn Gly) within its VHCDR2. This potential sequence liability was de-risked by synthesising de novo two clonal variant VH genes (Asn Ala and Gln Gly) and cloning these sequences into the human Alya IgG1 expression vector. To determine the specificity profile of each purified human Alya IgG1, a dilution series was tested for binding to human SEMA4A, mouse SEMA4A, cyno SEMA4A, human SEMA4B and mock transfected cells (transient transfections set up in expi 293 cells.) The five assays employed methods described in section 2.3, using the appropriate cells and substituting the un-purified scFv periplasmic preparation with the recombinant human Alya IgG1 dilution series. Data was analysed as Count x median mean intensity (x FLU).
B1: binds.
B2: binds.
B3: binds.
